How the values were obtained:
[1] = molecular target: these two hybridoma culture supernatants; test: competitive EIA against biotinylated goby urotensin II
[2] = molecular target: monoclonal antibody AUII103-5-41a; test: competitive EIA; ratio of the antigen levels giving (B/B0)=0.5 (0.68 nM / 17.4 nM)
[3] = molecular target: monoclonal antibody AUII103-5-41a; test: competitive EIA: unlabelled peptide displaces biotinylated goby urotensin II from captured antibody
[4] = molecular target: monoclonal antibody AUII5-6-10a; test: as above

Row | Binder | IC50 [1] [nM] | human urotensin II level at (B/B0)=0.9 [1] [nM] | ratio of reactivity with human urotensin II to reactivity with porcine urotensin II-1 [2] [time] | IC50 [3] [nM] | IC50 [4] [nM]
1 | ETPDCFWKYCV [human urotensin II] | 0.5 to 2 | 0.2 | 0.04 | 0.68 | 1.2
2 | GPTSECFWKYCV [porcine urotensin II-1] |  |  |  | 17.4 | 

— patent US20060051344A1
